Measured values from paper PMC6636993.

How the values were obtained:
[1] = biological target: PVY coat protein N-terminal deletion mutant ΔN49 (potato virus Y (NTN strain)); experiment: cryo-EM 2D class averages
[2] = biological target: PVY coat protein N-terminal deletion mutant ΔN49 (potato virus Y (NTN strain)); experiment: SEC-MALS

Work on “PVY coat protein N-terminal deletion mutant ΔN49 (domain or fragment)” yielded a stoichiometry N [1] of 8 and a stoichiometry N [2] of 8.
